The target in test [1] is T1, IGFBP‐3 Nonglycosylated/Reduced (Homo sapiens, UniProt P17936).
T1 construct: We therefore elected to use the full‐length IGFBP‐3 protein to examine the effect of glycosylation; purchased MyBioSource MBS142177
Description: ELISA binding of biotin-HA or biotin-HN to immobilized nonglycosylated/reduced IGFBP-3. The settings on record: nonglycosylated/reduced (TCEP, NEM) IGFBP-3 (50 nM) coated; 0–2 μM biotin-ligand, overnight 4 °C; mean ± SD of three independent experiments in triplicate; read-out: concentration of biotin-HA or biotin-HN that produced 50% of maximum binding. The procedure: (§1) ELISA was conducted as we reported previously. Nunc MaxiSorp 96‐well flat‐bottom plates (Thermo Fisher, Waltham, MA, USA) were coated with samples as indicated. The plates were incubated overnight at 4 °C on a shaker to allow binding of the samples to the plate wells. After the incubation, the wells were washed 4× with TBST, filled with 400 µL blocking buffer (110 mM KCl, 5 mM NaHCO3, 5 mM MgCl2, 1 mM EGTA, 0.1 mM CaCl2, 20 mM HEPES, 1% BSA, pH 7.4), and incubated overnight at 4 °C on a shaker. The wells were then washed 4× with TBST, and 100 µL of sample at the desired concentration was added to each well before incubating overnight at 4 °C on a shaker. TBST was then used to wash the wells 4× before proceeding in one of two ways: (a) Biotinylated samples were analyzed by adding 100 µL streptavidin–HRP conjugate in TBST (1 : 2500 dilution) to the samples before incubating for 3 h at RT on a shaker, or (b) samples without biotin were analyzed by adding 100 µL TBST containing the primary antibody at the manufacturer's recommendation and incubating for 3 h at RT on a shaker before washing 4× with TBST. […] The reaction was stopped with 100 µL 2 M H2SO4 after incubating at RT for 0.5–15 min, resulting in a yellow color change that was measured by absorbance at 450 nm. […] Statistical analysis was determined by the GRAPHPAD PRISM 8.4.2 software (San Diego, CA, USA). […]

The target of a further test is T2, IGFBP‐3 Glycosylated (Homo sapiens, UniProt P17936).
T2 construct: We therefore elected to use the full‐length IGFBP‐3 protein to examine the effect of glycosylation; His; purchased Speed BioSystems YCP1009
As to the kind of experiment: ELISA binding of biotin-HA or biotin-HN to immobilized glycosylated IGFBP-3. Particulars: glycosylated IGFBP-3 (50 nM) coated; 0–2 μM biotin-ligand, overnight 4 °C; mean ± SD of three independent experiments in triplicate; read-out: concentration of biotin-HA or biotin-HN that produced 50% of maximum binding. The procedure:
as §1

Another test has as its target T3, IGFBP‐3 Nonglycosylated (Homo sapiens, UniProt P17936).
T3 construct: We therefore elected to use the full‐length IGFBP‐3 protein to examine the effect of glycosylation; purchased MyBioSource MBS142177
As to the kind of experiment: ELISA binding of biotin-HA or biotin-HN to immobilized nonglycosylated IGFBP-3. The settings on record: nonglycosylated IGFBP-3 (50 nM) coated; 0–2 μM biotin-ligand, overnight 4 °C; mean ± SD of three independent experiments in triplicate; read-out: concentration of biotin-HA or biotin-HN that produced 50% of maximum binding. The procedure: as §1

The target in test [2] is T4, IGFBP‐3 Glycosylated/Reduced (Homo sapiens, UniProt P17936).
T4 construct: We therefore elected to use the full‐length IGFBP‐3 protein to examine the effect of glycosylation; His; purchased Speed BioSystems YCP1009
Description: ELISA binding of biotin-HA or biotin-HN to immobilized glycosylated/reduced IGFBP-3. Particulars: glycosylated/reduced (TCEP, NEM) IGFBP-3 (50 nM) coated; 0–2 μM biotin-ligand, overnight 4 °C; mean ± SD of three independent experiments in triplicate; read-out: concentration of biotin-HA or biotin-HN that produced 50% of maximum binding. As for the experimental part: as §1

Drawing on article PMC7396449, “Biochemical determinants of the IGFBP‐3–hyaluronan interaction” (FEBS Open Bio, 2020), this text covers EC50 for one substance.

T2 sequence (P17936 28-291): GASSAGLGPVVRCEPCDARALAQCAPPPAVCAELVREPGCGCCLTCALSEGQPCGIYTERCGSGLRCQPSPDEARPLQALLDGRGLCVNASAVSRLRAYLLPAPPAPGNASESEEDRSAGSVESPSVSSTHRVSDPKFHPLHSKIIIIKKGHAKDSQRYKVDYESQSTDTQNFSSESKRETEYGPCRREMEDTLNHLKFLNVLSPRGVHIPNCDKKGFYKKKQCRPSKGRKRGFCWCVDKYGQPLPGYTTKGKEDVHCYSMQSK
T1 sequence (P17936 28-291): as above
T4 sequence (P17936 28-291): as above
T3 sequence (P17936 28-291): as above

As for “Biotin‐HN: biotin-HN (B-018-26, UniProt Q8IVG9), Phoenix Pharmaceuticals; biotinylated humanin”, the EC50 in test [1] turned out to be 96 ± 12 nM; with IGFBP‐3 Glycosylated, 104 ± 14 nM; in the test with IGFBP‐3 Nonglycosylated, 92 ± 16 nM; in test [2], 98 ± 16 nM.
